{"source": "the nanobody polyreactivity screen of Harvey et al. (2022)"}
{"assay": "yeast display, Sf9 membrane polyspecificity reagent, FACS + sequencing; frameworks hold sequencing errors", "outline": "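After 36–48 hours of galactose induction, yeast (Saccharomyces cerevisiae BJ5465) displaying a synthetic nanobody library were stained at 4 °C for 1 hour with 10% biotinylated, detergent-solubilized Sf9 membrane reagent. Streptavidin microbeads enriched the stained cells before FACS sorting into low and high (top ~1%) gates on anti-HA and streptavidin fluorescence. Each clone's polyreactivity label reflects its gate of origin.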"}
{"sequence": "QVQLVESGGGLVQAGGSLRLSCAASGYTFYDYAMGWYRQAPGKERELVARINGGGGTNYADSVKGRFTISRDNAKNTVYLQMNSLKPEDTAVYYCAADVYFRQGDVDLLRYDYWGQGTQVTVSS", "polyreactivity (PSR sort gate)": "low polyreactivity"}
{"sequence": "QVQLVESGGGLVQAGGSLRLSCAASGYTFYFYAMGCYRQAPGKERELVAAITGGGTTSYADSVKGRFTISRDNAKNTVYLQMNSLKPEDTAVYYCNVLFADKSDYWGQGTQVTVSS", "polyreactivity (PSR sort gate)": "low polyreactivity"}
{"sequence": "QVQLVESGGGLVQAGGSLRLSCAASGYTFYFYAMGWYRQAPGKERELVASITWRGGSTYYADSVKGRFTISRDNAKNTVYLQMNSLKPEDTAVYYCAKQVYYIYDYWGQGTQVTVSS", "polyreactivity (PSR sort gate)": "low polyreactivity"}
{"sequence": "QVQLVESGGGLVQAGGSLRLSCAASGYTFYRNAMGWYRQAPGKERELVASLRDDGSTYYADSEKGRFTISRDNAKNTVYLHMNSLKPEDTAVYYCNSDYPYIWHKGARYWHENDYWGQGTQVTVSS", "polyreactivity (PSR sort gate)": "low polyreactivity"}
{"sequence": "QVQLVESGGGLVQAGGSLRLSCAASGYTFYVYAMGWYRQAPGKERELVADISTSDGSTYYADSVKGRFTISRDNAKNTVYLQMNSLKPEDTAVYYCNTDGSHGLYDWFWPANNDDWGQGTQVSVSS", "polyreactivity (PSR sort gate)": "low polyreactivity"}
{"sequence": "QVQLVESGGGLVQAGGSLRLSCAASGYTIRGYVMGWYRQAPGKERELVAAISASGGRTYYADSVKGRFTISRDNAKNTVYLQMNSLKPEHTAVYYCAASKSKISSLDYWGQGTQVTVSS", "polyreactivity (PSR sort gate)": "high polyreactivity"}
{"sequence": "QVQLVESGGGLVQAGGSLRLSCAASGYTIYRYAMGWYRQAPGNERELVAAISSAGTTNYADSVKGRFTISRDNAKNTVYLQINSLKPEDTAVYYCNKRGRNHNSLKYGYWGQGTQVTVSS", "polyreactivity (PSR sort gate)": "high polyreactivity"}
{"sequence": "QVQLVESGGGLVQAGGSLRLSCAASGYTIYYYAMGWYRQAPGKERELVARITSGGSTYYADSVKGRFTISRDNAKNTVYLQMNSLKPVDTAVYYCNVEVSVEVAYWGQGTQVTVSS", "polyreactivity (PSR sort gate)": "low polyreactivity"}
{"sequence": "QVQLVESGGGLVQAGGSLRLSCAASGYTLRYYAMGWYRQAPGKERELVAAITYSGGSTYYADSVKGRFTISRDHAKNTVYLQMNSLKPEDTAVYYCAADYRAPLDYWGQGTQVTVSS", "polyreactivity (PSR sort gate)": "low polyreactivity"}
{"sequence": "QVQLVESGGGLVQAGGSLRLSCAASGYTQPANGMGLYRQAPGKERELVAAISFIAGSTYYADSVKGRFTISRDNAKNTVYLQMNSLKPEDTAVYYCATQFPPSTIYDYWGQGTQVSVSS", "polyreactivity (PSR sort gate)": "low polyreactivity"}
{"sequence": "QVQLVESGGGLVQAGGSLRLSCAASGYTSYRYAMGWYRQAPGKERELVAAINWSGSSTYYADSVKGRFTISRDYAKNTVYLQMNSLKPEDTAVYYCAARRYRSPIGGYDYWGQGTQVTVSS", "polyreactivity (PSR sort gate)": "high polyreactivity"}
{"sequence": "QVQLVESGGGLVQAGGSLRLSCAASGYTYPYYTMGWYRQAPGKERELVAAISSGGRTKYADSVKGRFTISRDNAKNTVYLQMNSLKPEDTAVYYCAKSGNYRTGRFDYWGQGTQVTVSS", "polyreactivity (PSR sort gate)": "high polyreactivity"}
{"sequence": "QVQLVESGGGLVQAGGSLRLSCAASMGLYRQAPGKERDLVATITSDAGTNYADSVKGRFTISRDNAKNTVYLQRNSLKPEDTAVYYCNADGYDSSDFGEGDYWGQVTQVTVSS", "polyreactivity (PSR sort gate)": "low polyreactivity"}
{"sequence": "QVQLVESGGGLVQAGGSLRLSCAASMGWYRQAPGKERELVAITRTTRTYYADSVKGRFTISRDNAKNTVYLQMNSLKPVDTAVYYCAAPNGPSPYWYNYWGQGTQVTVSS", "polyreactivity (PSR sort gate)": "low polyreactivity"}
{"sequence": "QVQLVESGGGLVQAGGSLRLSCAASPLTFRYYDMGWYRQAPGKERELVAAISRTGRTNYADSVKGRFTISRDNAKNTVYVQMNSLKPEDTAVYYCAATGIYAKALLWYDYWGQGTQVTVSS", "polyreactivity (PSR sort gate)": "high polyreactivity"}
{"sequence": "QVQLVESGGGLVQAGGSLRLSCAASRFIFSWYAMGWYRQAPGTERELVATISSSGGRTHYADSVKGRFTISRDNAKNTVDLHMKSLKPEVTEVYYCAAHPFYYFTTVYYWGQGTQVTVSS", "polyreactivity (PSR sort gate)": "high polyreactivity"}
{"sequence": "QVQLVESGGGLVQAGGSLRLSCAASRGIFGYNAMGWYRQAPGKERELVARISSSGGSTYYADSVKGRFTISRDNAKNTVYLQMNSLKPEDTAVYYCNTASNRYPGWRAEFDYWGQGTQVTVSS", "polyreactivity (PSR sort gate)": "low polyreactivity"}
{"sequence": "QVQLVESGGGLVQAGGSLRLSCAASRIFFNGYAMGWYRQAHGSERELVAAITVSGGRTFYADSVKGRFTISRDNAKNTVYLQMNSLKPEDTAVYYCNAVPRRVRLYDYWGQGTQVNVSS", "polyreactivity (PSR sort gate)": "high polyreactivity"}
{"sequence": "QVQLVESGGGLVQAGGSLRLSCAASRITFYPNDMGWDRQAPGKERELVAAITTNDGDTYYADSVKGRFTISRDNAKNTVYLQMISLQPEDTAVYYCAADSGSTSEYEYLGQGTQVTVSS", "polyreactivity (PSR sort gate)": "low polyreactivity"}
{"sequence": "QVQLVESGGGLVQAGGSLRLSCAASRLTFQDYAMGWYRQAPGKERELVAGISRSGGRTNYADSVKGRFTISRDNAKNTVYLQMNSLKPEDTAVYYCATPYRRLNTWIYDYWGQGTQVTVSS", "polyreactivity (PSR sort gate)": "high polyreactivity"}
{"sequence": "QVQLVESGGGLVQAGGSLRLSCAASRLTFQQYAMGWYRQAPGKERELVAAITSDGASTNYADSVKGRFTISRDYAKNTVYLQMNSLKPEDTAVYYCAARRRSRQYRYDYWGQGTQVTVSS", "polyreactivity (PSR sort gate)": "high polyreactivity"}
{"sequence": "QVQLVESGGGLVQAGGSLRLSCAASRNIFRYYVMGWYRPAPGKEREFVAAISYRAGSTYYADSVKGSFTISRDNAKNTVYLQMNSLKPEDTAFYYCNAERTRDFYEYDYWGQGTQVTVSS", "polyreactivity (PSR sort gate)": "low polyreactivity"}
{"sequence": "QVQLVESGGGLVQAGGSLRLSCAASRNTFVPYVMGWYRQAPGKERELVAAISRRGGSTRYADSVKGRFTISRDNAKNTVYLQMNSLKPEDTAVYYCAAKRKSYYSYNFDYWGHGTQVTVSS", "polyreactivity (PSR sort gate)": "high polyreactivity"}
{"sequence": "QVQLVESGGGLVQAGGSLRLSCAASRSIFDLYAMGWYRQAPGKEREFVAAITWRGSSTYYADSVKGRFTISRDNAKNNVYLQMNSLKPEDTAVYYCAATHNQVVARYAFIYWGQGTQVTVSS", "polyreactivity (PSR sort gate)": "high polyreactivity"}
{"sequence": "QVQLVESGGGLVQAGGSLRLSCAASRSIFGTYAMGWYRQAPGKERELVAAISYSGGSTYYADSVKGRFTISRDNGKYTVYLQMNSLKPEDTAVYYCNKSRFYWGYYWGQGTQVTVSS", "polyreactivity (PSR sort gate)": "low polyreactivity"}
{"sequence": "QVQLVESGGGLVQAGGSLRLSCAASRSIFRSYAMGWYTQAPGKERELVAAITSSSGSTYYADSVKGRFTISRDNAKNTVYLQMNSLKPEDTAVYYCNAPYWKSRFRAYYHWGQGTQVTVSS", "polyreactivity (PSR sort gate)": "high polyreactivity"}
{"sequence": "QVQLVESGGGLVQAGGSLRLSCAASRSTFVRNAMGWYREAPGKESELVAASSNVGSTYYADSVKGRFTISRDTAKNTVYFQMNILKPEDTAVYYCTKQLWYHKFNYWGQGTQVTVSA", "polyreactivity (PSR sort gate)": "low polyreactivity"}
{"sequence": "QVQLVESGGGLVQAGGSLRLSCAASRSTFYRYTMGWYIQAPGKERELVADITGSGGRTYYADSVKGRFTISRDNAKNTVYLQMNSLIPEDTAVYYCNAAYVWYRARAGSEDYWGQGTQVTVSS", "polyreactivity (PSR sort gate)": "high polyreactivity"}
{"sequence": "QVQLVESGGGLVQAGGSLRLSCAASSIFPSNAMGLYRPAPGKERELVAAISSGGSTNYADSVKGRFTISRDNAKNTVYLQMNSLKPEDTAVYYCAAVRYYRRRTGSYYHYDYWGQGTQVTVSS", "polyreactivity (PSR sort gate)": "low polyreactivity"}
{"sequence": "QVQLVESGGGLVQAGGSLRLSCAASVFIFAIYAMGWYRQAPGKERELVADINSDGSTYYADSVKGRFTISRDNAKNTVYLQMNSLKPEDTAVYYCNAETAGHDMDYWGQGTQVTVSS", "polyreactivity (PSR sort gate)": "low polyreactivity"}
{"sequence": "QVQLVESGGGLVQAGGSLRLSCAASVFIFGTNAMGWYRQAPGKERELVASISSTGGSTYYADSVKGRLTISRDNAKNTVYLQMNSLIPEDNAVSFCASDHYPEYIRYVPGVDYWGQGTQVTVSS", "polyreactivity (PSR sort gate)": "low polyreactivity"}
{"sequence": "QVQLVESGGGLVQAGGSLRLSCAASVFIFGYYAMGWYRQAPGKERELVADISWSGVSTYYADSVKGRFTISRDNAKNTVYLQMNSLKPEDNAVYYCAVGYVLTGVFQARFDYWGQGTQVTVSS", "polyreactivity (PSR sort gate)": "high polyreactivity"}
{"sequence": "QVQLVESGGGLVQAGGSLRLSCAASVFLPYTMGWYRQAPGKERELVAAITRGGSTYYADSVKGRFTISRDNAKNTVYLQMNSLKPEDTAVYYCAKRSTFAWRGYDYWGQGTEVTVSS", "polyreactivity (PSR sort gate)": "high polyreactivity"}
{"sequence": "QVQLVESGGGLVQAGGSLRLSCAASVFTFPPYAMGWYRQAPGKERELVAAISSAGSTKYADSVKGRFTISRDNAKNTVYLQMNSLKPEDTAVYYCAARWARSYDYWGQGTQVTVSS", "polyreactivity (PSR sort gate)": "low polyreactivity"}
{"sequence": "QVQLVESGGGLVQAGGSLRLSCAASVFTFSRYAMGWYRQAPGKERELVAAITRGGGNTYYADSVKGRFTISRDNAKNTVYLQMHSLNPEDTAVFYCNAQVGNFGYRSGGYDYWGQGTQVTVSS", "polyreactivity (PSR sort gate)": "high polyreactivity"}
{"sequence": "QVQLVESGGGLVQAGGSLRLSCAASVFTLWLNAMGWYRQAPGKERELVAAITTSDDGTYYADSVKGRFTISRDNAKNTVYLQMNSLKPEDTAVYYCAADYYSVLYDYWGQGTQVTVSS", "polyreactivity (PSR sort gate)": "low polyreactivity"}
{"sequence": "QVQLVESGGGLVQAGGSLRLSCAASVGIYSQNVRGWYRQAPGKEWELVAAISRRGGRTYYADSVKGRFKISRDNAKNTVYLQMNSLKPEDTAVYYCATLSPERRVYYTYSGLFEYWGQGTQVTVSS", "polyreactivity (PSR sort gate)": "high polyreactivity"}
{"sequence": "QVQLVESGGGLVQAGGSLRLSCAASVIIFTRYAMGWYRQATGKERELVAGITRRGGSTYYADSVKGRFTISRDNAKNTVYLQMKSLKPEDTAVYYCNTYQRDYPYGVEDDSWGQGTEVTVSS", "polyreactivity (PSR sort gate)": "high polyreactivity"}
{"sequence": "QVQLVESGGGLVQAGGSLRLSCAASVITFGRNTMGWYRQAPGKERELVAAISWNGDSTYYADSVKGRFTISRDNAKNTVYFQMNSLKPEDTAVYFCNADDVFLYQTDGLGDYWGQGTQVTVSS", "polyreactivity (PSR sort gate)": "low polyreactivity"}
{"sequence": "QVQLVESGGGLVQAGGSLRLSCAASVLIMGYYAMGWYRQAPGKERELVAAISSTGSTNYADSVKGRFTISRDNAKNTVYLQMNTLKQEDTAVYYCAAVPPRKDYQHMDYWGQGTQVTVSS", "polyreactivity (PSR sort gate)": "low polyreactivity"}
{"sequence": "QVQLVESGGGLVQAGGSLRLSCAASVRISVFNAMGWYRKPPGKESELVAGISNGGSTNYADSVKGRFTISRDNAKNTVYLQMNSLKPEDTAVYYCANDEPKVCRAFDYWGQGTQVTVSS", "polyreactivity (PSR sort gate)": "low polyreactivity"}
{"sequence": "QVQLVESGGGLVQAGGSLRLSCAASVRTFWYNAMGWYRQAPGKERELVAVISSGAITYYADSVKGRFTISRDNAKNTVYLQMNSLKPEDTAVYYCNAQRRGTYYWGQGTQVTVSS", "polyreactivity (PSR sort gate)": "high polyreactivity"}
{"sequence": "QVQLVESGGGLVQAGGSLRLSCAASVSIFGVKVMGWYRQAPGKERELVAAIDVSDTSTYYADSVKGRFTISRDNAKNTVYLQMNSLKAEDTAVYYCAARRTRYPFQFDYWGQGTQVTVSS", "polyreactivity (PSR sort gate)": "low polyreactivity"}
